Data from patent publication US20230242675A1 (SHANGHAI EPIMAB BIOTHERAPEUTICS, published 2023).

T1: human TGFβ2 (human, UniProt P61812 303-414)
T1 construct: also called TGFβ isoform 2; TGFβ2 (Cat. No. CJ79, Novoprotein)
T1 sequence (looked up): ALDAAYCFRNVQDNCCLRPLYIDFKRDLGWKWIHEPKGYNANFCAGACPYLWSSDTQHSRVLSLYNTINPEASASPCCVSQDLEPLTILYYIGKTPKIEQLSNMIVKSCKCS


How the values were obtained:
[1] = target: T2, biotinylated human PD-L1 protein (ACROBiosystems, H82E5) (human, UniProt Q9NZQ7 19-238, biotinylated (site not stated)); assay: dual-binding ELISA: human TGFβ1 coated, 5 nM binding protein bound to it, biotinylated human PD-L1 titrated 0.0006-10 nM (axis labelled Ab (nM)), streptavidin-HRP, OD450; the EC50 is of the titrated PD-L1
T2 construct: also called biotinylated PD-L1
Procedure: (§1) Briefly, ELISA plates were incubated overnight at 4° C. with 100 μl of a human TGFβ isoform diluted in PBS buffer, pH 7.4, at 1 μg/ml, to allow the human TGFβ isoform to coat (adsorb to) the surface of the wells. Plates were washed three times in washing buffer (PBS containing 0.05% Tween 20) and blocked for 1 hour at 37° C. with 200 μl per well blocking buffer (1% BSA in PBS containing 0.05% Tween 20). […] The wells were washed four times with washing buffer, and Streptavidin-HRP (Merck, RABHRP3) was diluted 1:10000 and added to the wells at 100 μl per well. The plates were incubated for 1 hour at 37° C. and washed four times in washing buffer. 100 μl of tetramethylbenzidine (TMB) chromogenic solution were added per well.

[2] = target: T2, biotinylated human PD-L1 protein …; assay: dual-binding ELISA: human TGFβ3 coated, 5 nM binding protein bound to it, biotinylated human PD-L1 titrated 0.0006-10 nM (axis labelled Ab (nM)), streptavidin-HRP, OD450; the EC50 is of the titrated PD-L1
Procedure: as §1

human TGFβ1 = target: T3, human TGFβ1 (human, UniProt P01137 279-390); assay: ELISA: human TGFβ1 coated (1 µg/ml), binding protein titrated 0.0006-10 nM, anti-human IgG Fc-HRP, OD450
T3 construct: also called TGFβ isoform 1; TGFβ1 (Cat. No. CA59, Novoprotein)
Procedure: (§2) Accordingly, each of the wells of the ELISA microplates provided a reaction mixture to test the ability of a particular binding protein at a particular concentration to bind to a particular TGFβ isoform. […] Plates were washed three times in washing buffer (PBS containing 0.05% Tween 20) and blocked for 1 hour at 37° C. with 200 μl per well of blocking buffer (1% BSA in PBS containing 0.05% Tween 20). […] The wells containing the various binding mixtures were incubated at 37° C. for 1 hour to permit binding to TGFβ protein on the surface of the wells. Thereafter, the wells were washed four times with washing buffer, and anti-human IgG Fc HRP (Sigma, Catalog No. A0170) was diluted 1:10000 and added to the wells at 100 μl per well to detect binding protein that was bound to TGFβ protein present on the surface of a well. The plates were incubated for 1 hour at 37° C. and washed four times with washing buffer. 100 μl of tetramethylbenzidine (TMB) chromogenic solution were added per well. Following color development, the reaction was stopped with 1 N HCl, and absorbance at 450 nm (OD450) was measured on a VARIOSKAN™ LUX microplate reader (Thermo Scientific™).

[3] = target: T2, biotinylated human PD-L1 protein …; assay: dual-binding ELISA: human TGFβ2 coated, 5 nM binding protein bound to it, biotinylated human PD-L1 titrated 0.0006-10 nM (axis labelled Ab (nM)), streptavidin-HRP, OD450; the EC50 is of the titrated PD-L1
Procedure: as §1

human TGFβ2 = target: T1, human TGFβ2; assay: ELISA: human TGFβ2 coated (1 µg/ml), binding protein titrated 0.0006-10 nM, anti-human IgG Fc-HRP, OD450
Procedure: as §2

[4] = target: T4, human PD-L1/His fusion protein (human, UniProt Q9NZQ7 19-239); assay: BLI Octet Red, binding protein on AHC sensor, PD-L1-his in solution
Procedure: Sensors were then dipped into running buffer (1×pH 7.2 PBS, 0.05% Tween 20, 0.1% BSA) for 60 seconds to check baseline. Binding was measured by dipping sensors into a series diluted concentration of recombinant human PD-L1-his protein. Dissociation was followed by dipping sensors into running buffer for 1200 seconds. The association and dissociation curves were fitted to a 1:1 Langmuir binding model using ForteBio Data Analysis software (Pall). The equilibrium dissociation constant KD (M) of the reaction between antibodies and related target proteins was then calculated from the kinetic rate constants using the formula KD=koff/kₒₙ.

[5] = target: T4, human PD-L1/His fusion protein; assay: BLI off-rate; test group 4
Procedure: (§3) Briefly, antibodies were characterized for affinities and binding kinetics by Octet®RED96 biolayer interferometry (Pall ForteBio LLC). Antibodies were captured by Anti-hIgG Fc Capture (AHC) Biosensors (Pall) at a concentration of 100 nM for 30 seconds. Sensors were then dipped into running buffer (1×pH 7.2 PBS, 0.05% Tween 20, 0.1% BSA) for 60 seconds to check baseline. Binding was measured by dipping sensors into a single concentration of recombinant human PD-L1/His fusion protein (Novoprotein). Dissociation was followed by dipping sensors into running buffer for 1200 seconds. The association and dissociation curves were fitted to a 1:1 Langmuir binding model using ForteBio Data Analysis software (Pall). […] The off-rate ratio serves as a data normalization. Accordingly, in each test group, the off-rate ratios of the humanized antibodies can be compared with that of the chimeric antibody, and the off-rate ratios of each of the humanized antibodies can be compared to one another within all test groups.

[6] = target: T4, human PD-L1/His fusion protein; assay: BLI Octet RED96, antibody on AHC sensor, single conc. PD-L1/His; test group 4; test group 4
Procedure: as §3

T2 sequence (Q9NZQ7 19-238 limits assumed): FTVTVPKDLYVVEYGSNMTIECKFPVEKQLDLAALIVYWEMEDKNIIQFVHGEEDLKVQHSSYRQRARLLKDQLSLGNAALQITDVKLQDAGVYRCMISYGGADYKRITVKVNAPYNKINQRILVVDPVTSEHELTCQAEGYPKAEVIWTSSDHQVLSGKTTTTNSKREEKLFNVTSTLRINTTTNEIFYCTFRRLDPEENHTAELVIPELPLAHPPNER
T4 sequence (Q9NZQ7 19-239 limits assumed): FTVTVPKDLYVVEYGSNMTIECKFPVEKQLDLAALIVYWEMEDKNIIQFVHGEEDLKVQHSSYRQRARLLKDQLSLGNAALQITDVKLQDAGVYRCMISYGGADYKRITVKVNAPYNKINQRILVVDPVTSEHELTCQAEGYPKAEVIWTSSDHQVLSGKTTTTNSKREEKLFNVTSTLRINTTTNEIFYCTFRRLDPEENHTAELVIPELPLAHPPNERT
T3 sequence (P01137 279-390 limits assumed): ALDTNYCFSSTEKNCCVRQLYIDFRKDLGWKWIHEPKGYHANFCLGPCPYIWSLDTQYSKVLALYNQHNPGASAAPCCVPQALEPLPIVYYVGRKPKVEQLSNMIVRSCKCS

EC50 [1] [nM] | EC50 [2] [nM] | EC50 (human TGFβ1) [nM] | EC50 [3] [nM] | EC50 (human TGFβ2) [nM] | Kd [4] [nM] | Off-Rate Ratio to that of EM0005-90c [5] [%] | koff [6] [s⁻¹] | Binder
0.275 | 0.262 | 0.374 | 0.262 | 0.833 | < 0.01 | – | – | FIT1012-7a TGFβ/PD-L1 bispecific binding protein (bispecific antibody, human IgG1, kappa, Six-chain protein; anti-PD-L1 moiety from HuEM0005-90-1 with G55A; four TGFβR2(ECD) traps) heavy: not shown TIPPHVQKSVNNDMIVTDNNGAVKFPQLCKFCDVRFSTCDNQKSCMSNCSITSICEKPQEVCVAVWRKNDENITLETVCHDPKLPYHDFILEDAASPKCIMKEKKKPGETFFMCSCSSDECNDNIIFSEEYNTSNPDASTKGPSVFPLAPSSKSTSGGTAALGCLVKDYFPEPVTVSWNSGALTSGVHTFPAVLQSSGLYSLSSVVTVPSSSLGTQTYICNVNHKPSNTKVDKKVEPKSC light: DIQLTQSPSFLSASVGDRVTITCKASQDVGTAVAWYQQKPGKAPKLLIYWASTRHTGVPSRFSGSGSGTEFTLTISSLQPEDFATYYCQQYSSYPYTFGQGTKLEIKRTVAAPSVFIFPPSDEQLKSGTASVVCLLNNFYPREAKVQWKVDNALQSGNSQESVTEQDSKDSTYSLSSTLTLSKADYEKHKVYACEVTHQGLSSPVTKSFNRGEC
– | – | – | – | – | – | 146 | 0.00328 | HuEM0005-90-19 (antibody, human IgG1, V domains shown) VH: EVQLVQSGAEVKKPGASVKVSCKTSGYTFTSHSINWVRQATGQGLEWMGYMYIGNGYTEYNEKFKGRVTMTSNTSISTAYMELSSLRSEDTAVYYCAKITPVVAPYVMDYWGQGTSVTVSS VL: DIVMTQSPSFLSASVGDRVTITCKASQDVGTAVAWYQQKPGKAPKLLIYWASTRHTGVPDRFTGSGSGTDFTLTISSLQPEDFATYYCQQYSSYPYTFGQGTKLEIK
